Assay results reported in patent US20260008815A1, “CYCLIC PEPTIDE OR SALT THEREOF, AND USES THEREOF” (FUJIFILM Corporation, priority 2023, published 2026).
Bridge positions count the residues as written; N and C are the ends. Ends that are not written are not given here. COCH2 = acetyl group that carries the bridge

Molecular target: T1, Recombinant Human FGFR2 alpha (IIIc) Fc Chimera Protein (Homo sapiens, UniProt P21802)
T1 construct: Fc (chimera); purchased R&D systems 712-FR-050
Assay: ELISA binding affinity of enzymatically synthesized peptide to FGFR
Settings: ELISA luminescence signal at 10 nmol/L peptide, SEQ ID NO: 47 at 10 nmol/L standardized to 1; enzyme synthesis product
Method in brief: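 FGFR2 alpha (IIIc) Fc chimera (5 ng/well) was immobilized, and Myc-tagged peptide was bound 3 h at room temperature, then detected with anti-Myc antibody (2 h) and chemiluminescent substrate. Signal was corrected against FGFR-free wells. Score A–D was the luminescence at 10 nmol/L peptide, normalized to cyclic peptide SEQ ID NO: 47.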

T1 sequence (P21802 with tags, fused parts or gaps limits assumed): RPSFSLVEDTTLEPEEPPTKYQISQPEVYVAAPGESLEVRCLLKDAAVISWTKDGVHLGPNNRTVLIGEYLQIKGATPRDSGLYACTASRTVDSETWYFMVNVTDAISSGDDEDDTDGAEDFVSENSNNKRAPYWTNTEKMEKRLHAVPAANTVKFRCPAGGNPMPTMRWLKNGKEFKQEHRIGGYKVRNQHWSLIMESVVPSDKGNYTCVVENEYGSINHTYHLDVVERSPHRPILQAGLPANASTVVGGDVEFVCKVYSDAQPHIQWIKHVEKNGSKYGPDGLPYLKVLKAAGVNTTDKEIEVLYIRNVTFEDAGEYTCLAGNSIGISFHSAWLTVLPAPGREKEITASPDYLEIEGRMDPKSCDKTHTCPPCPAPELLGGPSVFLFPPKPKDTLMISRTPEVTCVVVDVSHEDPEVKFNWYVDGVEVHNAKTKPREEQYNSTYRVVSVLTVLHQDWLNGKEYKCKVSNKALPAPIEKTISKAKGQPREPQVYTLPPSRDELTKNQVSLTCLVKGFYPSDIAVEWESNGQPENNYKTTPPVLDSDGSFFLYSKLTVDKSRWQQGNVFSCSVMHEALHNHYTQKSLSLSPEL

Substance | Evaluation result of binding affinity to FGFR
284 (YCEENYLDPEQYQYFQYFK(COCH2)Y; thioether 2-19) [compound 284] | A (0.7 or more)
285 (YCEENYLDPEQYQYFSYFK(COCH2)Y; thioether 2-19) [compound 285] | A (0.7 or more)
286 (YCEENYLDPEQYQYFTYFK(COCH2)Y; thioether 2-19) [compound 286] | A (0.7 or more)
287 (YCEENYLDPEQYQYFDYFK(COCH2)Y; thioether 2-19) [compound 287] | A (0.7 or more)
288 (YCEENYLDPEQYQYFEYFK(COCH2)Y; thioether 2-19) [compound 288] | A (0.7 or more)
289 (YCEENYLDPEQYQYFRYFK(COCH2)Y; thioether 2-19) [compound 289] | A (0.7 or more)
290 (YCEENYLDPEQYQYFHYFK(COCH2)Y; thioether 2-19) [compound 290] | A (0.7 or more)
291 (YCEENYLDPEQYQYFIGFK(COCH2)Y; thioether 2-19) [compound 291] | B (0.5 or more and less than 0.7)
292 (YCEENYLDPEQYQYFIPFK(COCH2)Y; thioether 2-19) [compound 292] | C (0.1 or more and less than 0.5)
293 (YCEENYLDPEQYQYFILFK(COCH2)Y; thioether 2-19) [compound 293] | A (0.7 or more)
294 (YCEENYLDPEQYQYFIIFK(COCH2)Y; thioether 2-19) [compound 294] | B (0.5 or more and less than 0.7)
295 (YCEENYLDPEQYQYFIVFK(COCH2)Y; thioether 2-19) [compound 295] | A (0.7 or more)
296 (YCEENYLDPEQYQYFIFFK(COCH2)Y; thioether 2-19) [compound 296] | A (0.7 or more)
297 (YCEENYLDPEQYQYFIWFK(COCH2)Y; thioether 2-19) [compound 297] | A (0.7 or more)
298 (YCEENYLDPEQYQYFINFK(COCH2)Y; thioether 2-19) [compound 298] | A (0.7 or more)
299 (YCEENYLDPEQYQYFIQFK(COCH2)Y; thioether 2-19) [compound 299] | A (0.7 or more)
300 (YCEENYLDPEQYQYFISFK(COCH2)Y; thioether 2-19 (inferred)) [compound 300] | A (0.7 or more)
301 (YCEENYLDPEQYQYFITFK(COCH2)Y; thioether 2-19 (inferred)) [compound 301] | A (0.7 or more)
302 (YCEENYLDPEQYQYFIDFK(COCH2)Y; thioether 2-19 (inferred)) [compound 302] | A (0.7 or more)

Substance | Evaluation result of binding affinity to FGFR
303 (YCEENYLDPEQYQYFIEFK(COCH2)Y; thioether 2-19 (inferred)) [compound 303] | A (0.7 or more)
304 (YCEENYLDPEQYQYFIRFK(COCH2)Y; thioether 2-19 (inferred)) [compound 304] | A (0.7 or more)
305 (YCEENYLDPEQYQYFIHFK(COCH2)Y; thioether 2-19 (inferred)) [compound 305] | A (0.7 or more)
306 (YCEENYLDPEQYQYFIYYK(COCH2)Y; thioether 2-19 (inferred)) [compound 306] | A (0.7 or more)
307 (YCEENYLDPEQYQYFIYWK(COCH2)Y; thioether 2-19 (inferred)) [compound 307] | A (0.7 or more)
308 (YCEENYLDPEQYQYFIYFK(COCH2)G; thioether 2-19 (inferred)) [compound 308] | A (0.7 or more)
309 (YCEENYLDPEQYQYFIYFK(COCH2)L; thioether 2-19 (inferred)) [compound 309] | A (0.7 or more)
310 (YCEENYLDPEQYQYFIYFK(COCH2)I; thioether 2-19 (inferred)) [compound 310] | A (0.7 or more)
311 (YCEENYLDPEQYQYFIYFK(COCH2)V; thioether 2-19 (inferred)) [compound 311] | A (0.7 or more)
312 (YCEENYLDPEQYQYFIYFK(COCH2)F; thioether 2-19 (inferred)) [compound 312] | A (0.7 or more)
313 (YCEENYLDPEQYQYFIYFK(COCH2)W; thioether 2-19 (inferred)) [compound 313] | A (0.7 or more)
314 (YCEENYLDPEQYQYFIYFK(COCH2)N; thioether 2-19 (inferred)) [compound 314] | A (0.7 or more)
315 (YCEENYLDPEQYQYFIYFK(COCH2)Q; thioether 2-19 (inferred)) [compound 315] | A (0.7 or more)
316 (YCEENYLDPEQYQYFIYFK(COCH2)S; thioether 2-19 (inferred)) [compound 316] | A (0.7 or more)
317 (YCEENYLDPEQYQYFIYFK(COCH2)T; thioether 2-19 (inferred)) [compound 317] | A (0.7 or more)
318 (YCEENYLDPEQYQYFIYFK(COCH2)D; thioether 2-19 (inferred)) [compound 318] | A (0.7 or more)
319 (YCEENYLDPEQYQYFIYFK(COCH2)E; thioether 2-19 (inferred)) [compound 319] | A (0.7 or more)
320 (YCEENYLDPEQYQYFIYFK(COCH2)R; thioether 2-19 (inferred)) [compound 320] | A (0.7 or more)
321 (YCEENYLDPEQYQYFIYFK(COCH2)H; thioether 2-19 (inferred)) [compound 321] | A (0.7 or more)

Substance | Evaluation result of binding affinity to FGFR
322 (ACEENYLDPEQYQYFIYFK(COCH2)Y; thioether 2-19 (inferred)) [compound 322] | A (0.7 or more)
323 (YCAENYLDPEQYQYFIYFK(COCH2)Y; thioether 2-19 (inferred)) [compound 323] | A (0.7 or more)
324 (YCEANYLDPEQYQYFIYFK(COCH2)Y; thioether 2-19 (inferred)) [compound 324] | A (0.7 or more)
325 (YCEEAYLDPEQYQYFIYFK(COCH2)Y; thioether 2-19 (inferred)) [compound 325] | C (0.1 or more and less than 0.5)
326 (YCEENALDPEQYQYFIYFK(COCH2)Y; thioether 2-19 (inferred)) [compound 326] | C (0.1 or more and less than 0.5)
327 (YCEENYADPEQYQYFIYFK(COCH2)Y; thioether 2-19 (inferred)) [compound 327] | C (0.1 or more and less than 0.5)
328 (YCEENYLAPEQYQYFIYFK(COCH2)Y; thioether 2-19 (inferred)) [compound 328] | A (0.7 or more)
329 (YCEENYLDAEQYQYFIYFK(COCH2)Y; thioether 2-19 (inferred)) [compound 329] | A (0.7 or more)
330 (YCEENYLDPAQYQYFIYFK(COCH2)Y; thioether 2-19 (inferred)) [compound 330] | A (0.7 or more)
331 (YCEENYLDPEQYAYFIYFK(COCH2)Y; thioether 2-19 (inferred)) [compound 331] | A (0.7 or more)
332 (YCEENYLDPEQYQYFAYFK(COCH2)Y; thioether 2-19 (inferred)) [compound 332] | A (0.7 or more)
333 (YCEENYLDPEQYQYFIAFK(COCH2)Y; thioether 2-19 (inferred)) [compound 333] | A (0.7 or more)
334 (YCEENYLDPEQYQYFIYFK(COCH2)A; thioether 2-19 (inferred)) [compound 334] | A (0.7 or more)
335 (KCEENYLDPEQYQYFIYFK(COCH2)Y; thioether 2-19 (inferred)) [compound 335] | A (0.7 or more)
336 (YCKENYLDPEQYQYFIYFK(COCH2)Y; thioether 2-19 (inferred)) [compound 336] | A (0.7 or more)
337 (YCEKNYLDPEQYQYFIYFK(COCH2)Y; thioether 2-19 (inferred)) [compound 337] | A (0.7 or more)
338 (YCEENKLDPEQYQYFIYFK(COCH2)Y; thioether 2-19 (inferred)) [compound 338] | C (0.1 or more and less than 0.5)
339 (YCEENYKDPEQYQYFIYFK(COCH2)Y; thioether 2-19 (inferred)) [compound 339] | A (0.7 or more)
